Assays:
calmodulin = calmodulin (UniProt P0DP23 1-149); experiment: cryo-EM structure
cryo-EM structure = biological target: the molecule itself; experiment: cryo-EM structure

binding result (calmodulin): binds
B1: Truncated rat Eag1 (rEag1Δ; Kv10.1 with residues 773-886 removed) (natural protein, UniProt Q63472 1-962, looked up)
chain: MTMAGGRRGLVAPQNTFLENIVRRSNDTNFVLGNAQIVDWPIVYSNDGFCKLSGYHRAEVMQKSSACSFMYGELTDKDTVEKVRQTFENYEMNSFEILMYKKNRTPVWFFVKIAPIRNEQDKVVLFLCTFSDITAFKQPIEDDSCKGWGKFARLTRALTSSRGVLQQLAPSVQKGENVHKHSRLAEVLQLGSDILPQYKQEAPKTPPHIILHYCVFKTTWDWIILILTFYTAILVPYNVSFKTRQNNVAWLVVDSIVDVIFLVDIVLNFHTTFVGPAGEVISDPKLIRMNYLKTWFVIDLLSCLPYDVINAFENVDEGISSLFSSLKVVRLLRLGRVARKLDHYIEYGAAVLVLLVCVFGLAAHWMACIWYSIGDYEIFDEDTKTIRNNSWLYQLALDIGTPYQFNGSGSGKWEGGPSKNSVYISSLYFTMTSLTSVGFGNIAPSTDIEKIFAVAIMMIGSLLYATIFGNVTTIFQQMYANTNRYHEMLNSVRDFLKLYQVPKGLSERVMDYIVSTWSMSRGIDTEKVLQICPKDMRADICVHLNRKVFKEHPAFRLASDGCLRALAMEFQTVHCAPGDLIYHAGESVDSLCFVVSGSLEVIQDDEVVAILGKGDVFGDVFWKEATLAQSCANVRALTYCDLHVIKRDALQKVLEFYTAFSHSFSRNLILTYNLRKRIVFRKISDVKREEEERMKRKNEAPLILPPDHPVRRLFQRFRQQKEARLAAERGGRDLDDLDVEKGNALTDHTSANHSLVKASVVTVRESPATPVSFYPIPEQTLQATVLEVKHELKEDIKALNAKMTSIEKQLSEILRILMSRGSSQSPQDTCEVSRPQSPESDRDIFGAS
modifications: N-acetyl glucosamine on N388 (density observed); glycosylation sites N388 and N406
stoichiometry N (cryo-EM structure): 4
